Results: patent publication US12630600B2 (MEDIMMUNE LIMITED, priority 2022, dated 2026)
Starred links: 1 amine or outer side, 2 acyl side, 3 side chain; linkers in the order of their positions; H or OH if unused. Non-standard residues stand in square brackets, D forms with d. Groups on a side chain read outwards from the residue. No end group written: not given here. *: point of attachment. C20 diacid = O=C(O)CCCCCCCCCCCCCCCCCCC(=O)*; C18 diacid = O=C(O)CCCCCCCCCCCCCCCCC(=O)*; γGlu = O=C(O)[C@H](CCC(=O)[*:2])N[*:1]; αMeF = C[C@](N)(Cc1ccccc1)C(=O)O; AEEA = NCCOCCOCC(=O)O; Aib = CC(C)(N)C(=O)O

B1: Peptide 448 (peptide)
peptide: H[Aib]QGTFTSDVSK[αMeF]LDKK([AEEA-AEEA-γGlu-γGlu-C18 diacid])RARDFVRWLL[Aib]E-OH
modifications: N-terminus assumed
SMILES: CC(C)C[C@H](NC(=O)[C@H](Cc1c[nH]c2ccccc12)NC(=O)[C@H](CCCNC(=N)N)NC(=O)[C@@H](NC(=O)[C@H](Cc1ccccc1)NC(=O)[C@H](CC(=O)O)NC(=O)[C@H](CCCNC(=N)N)NC(=O)[C@H](C)NC(=O)[C@H](CCCNC(=N)N)NC(=O)[C@H](CCCCNC(=O)COCCOCCNC(=O)COCCOCCNC(=O)CC[C@H](NC(=O)CC[C@H](NC(=O)CCCCCCCCCCCCCCCCC(=O)O)C(=O)O)C(=O)O)NC(=O)[C@H](CCCCN)NC(=O)[C@H](CC(=O)O)NC(=O)[C@H](CC(C)C)NC(=O)[C@](C)(Cc1ccccc1)NC(=O)[C@H](CCCCN)NC(=O)[C@H](CO)NC(=O)[C@@H](NC(=O)[C@H](CC(=O)O)NC(=O)[C@H](CO)NC(=O)[C@@H](NC(=O)[C@H](Cc1ccccc1)NC(=O)[C@@H](NC(=O)CNC(=O)[C@H](CCC(N)=O)NC(=O)C(C)(C)NC(=O)[C@@H](N)Cc1c[nH]cn1)[C@@H](C)O)[C@@H](C)O)C(C)C)C(C)C)C(=O)N[C@@H](CC(C)C)C(=O)NC(C)(C)C(=O)N[C@@H](CCC(=O)O)C(=O)O
B2: Peptide 455 (peptide)
peptide: H[Aib]QGTFTSDVSK[αMeF]LDKK([AEEA-AEEA-γGlu-γGlu-C20 diacid])RAQDFVRWLL[Aib]E-NH2
modifications: N-terminus assumed
SMILES: CC(C)C[C@H](NC(=O)[C@H](Cc1c[nH]c2ccccc12)NC(=O)[C@H](CCCNC(=N)N)NC(=O)[C@@H](NC(=O)[C@H](Cc1ccccc1)NC(=O)[C@H](CC(=O)O)NC(=O)[C@H](CCC(N)=O)NC(=O)[C@H](C)NC(=O)[C@H](CCCNC(=N)N)NC(=O)[C@H](CCCCNC(=O)COCCOCCNC(=O)COCCOCCNC(=O)CC[C@H](NC(=O)CC[C@H](NC(=O)CCCCCCCCCCCCCCCCCCC(=O)O)C(=O)O)C(=O)O)NC(=O)[C@H](CCCCN)NC(=O)[C@H](CC(=O)O)NC(=O)[C@H](CC(C)C)NC(=O)[C@](C)(Cc1ccccc1)NC(=O)[C@H](CCCCN)NC(=O)[C@H](CO)NC(=O)[C@@H](NC(=O)[C@H](CC(=O)O)NC(=O)[C@H](CO)NC(=O)[C@@H](NC(=O)[C@H](Cc1ccccc1)NC(=O)[C@@H](NC(=O)CNC(=O)[C@H](CCC(N)=O)NC(=O)C(C)(C)NC(=O)[C@@H](N)Cc1c[nH]cn1)[C@@H](C)O)[C@@H](C)O)C(C)C)C(C)C)C(=O)N[C@@H](CC(C)C)C(=O)NC(C)(C)C(=O)N[C@@H](CCC(=O)O)C(N)=O
B3: Peptide 452 (peptide)
peptide: H[Aib]QGTFTSDVSK[αMeF]LDKK([AEEA-AEEA-γGlu-C20 diacid])RALDFVRWLL[Aib]E-NH2
modifications: N-terminus assumed
SMILES: CC(C)C[C@H](NC(=O)[C@H](C)NC(=O)[C@H](CCCNC(=N)N)NC(=O)[C@H](CCCCNC(=O)COCCOCCNC(=O)COCCOCCNC(=O)CC[C@H](NC(=O)CCCCCCCCCCCCCCCCCCC(=O)O)C(=O)O)NC(=O)[C@H](CCCCN)NC(=O)[C@H](CC(=O)O)NC(=O)[C@H](CC(C)C)NC(=O)[C@](C)(Cc1ccccc1)NC(=O)[C@H](CCCCN)NC(=O)[C@H](CO)NC(=O)[C@@H](NC(=O)[C@H](CC(=O)O)NC(=O)[C@H](CO)NC(=O)[C@@H](NC(=O)[C@H](Cc1ccccc1)NC(=O)[C@@H](NC(=O)CNC(=O)[C@H](CCC(N)=O)NC(=O)C(C)(C)NC(=O)[C@@H](N)Cc1c[nH]cn1)[C@@H](C)O)[C@@H](C)O)C(C)C)C(=O)N[C@@H](CC(=O)O)C(=O)N[C@@H](Cc1ccccc1)C(=O)N[C@H](C(=O)N[C@@H](CCCNC(=N)N)C(=O)N[C@@H](Cc1c[nH]c2ccccc12)C(=O)N[C@@H](CC(C)C)C(=O)N[C@@H](CC(C)C)C(=O)NC(C)(C)C(=O)N[C@@H](CCC(=O)O)C(N)=O)C(C)C
B4: Peptide 454 (peptide)
peptide: H[Aib]QGTFTSDVSK[αMeF]LDKK([AEEA-AEEA-γGlu-C20 diacid])RAQDFVRWLEA[Aib]G-NH2
modifications: N-terminus assumed
SMILES: CC(C)C[C@H](NC(=O)[C@H](Cc1c[nH]c2ccccc12)NC(=O)[C@H](CCCNC(=N)N)NC(=O)[C@@H](NC(=O)[C@H](Cc1ccccc1)NC(=O)[C@H](CC(=O)O)NC(=O)[C@H](CCC(N)=O)NC(=O)[C@H](C)NC(=O)[C@H](CCCNC(=N)N)NC(=O)[C@H](CCCCNC(=O)COCCOCCNC(=O)COCCOCCNC(=O)CC[C@H](NC(=O)CCCCCCCCCCCCCCCCCCC(=O)O)C(=O)O)NC(=O)[C@H](CCCCN)NC(=O)[C@H](CC(=O)O)NC(=O)[C@H](CC(C)C)NC(=O)[C@](C)(Cc1ccccc1)NC(=O)[C@H](CCCCN)NC(=O)[C@H](CO)NC(=O)[C@@H](NC(=O)[C@H](CC(=O)O)NC(=O)[C@H](CO)NC(=O)[C@@H](NC(=O)[C@H](Cc1ccccc1)NC(=O)[C@@H](NC(=O)CNC(=O)[C@H](CCC(N)=O)NC(=O)C(C)(C)NC(=O)[C@@H](N)Cc1c[nH]cn1)[C@@H](C)O)[C@@H](C)O)C(C)C)C(C)C)C(=O)N[C@@H](CCC(=O)O)C(=O)N[C@@H](C)C(=O)NC(C)(C)C(=O)NCC(N)=O
B5: Peptide 451 (peptide)
peptide: H[Aib]QGTFTSDVSK[αMeF]LDKK([AEEA-AEEA-γGlu-C20 diacid])RARDFVLWLL[Aib]E-NH2
modifications: N-terminus assumed
SMILES: CC(C)C[C@H](NC(=O)[C@H](Cc1c[nH]c2ccccc12)NC(=O)[C@H](CC(C)C)NC(=O)[C@@H](NC(=O)[C@H](Cc1ccccc1)NC(=O)[C@H](CC(=O)O)NC(=O)[C@H](CCCNC(=N)N)NC(=O)[C@H](C)NC(=O)[C@H](CCCNC(=N)N)NC(=O)[C@H](CCCCNC(=O)COCCOCCNC(=O)COCCOCCNC(=O)CC[C@H](NC(=O)CCCCCCCCCCCCCCCCCCC(=O)O)C(=O)O)NC(=O)[C@H](CCCCN)NC(=O)[C@H](CC(=O)O)NC(=O)[C@H](CC(C)C)NC(=O)[C@](C)(Cc1ccccc1)NC(=O)[C@H](CCCCN)NC(=O)[C@H](CO)NC(=O)[C@@H](NC(=O)[C@H](CC(=O)O)NC(=O)[C@H](CO)NC(=O)[C@@H](NC(=O)[C@H](Cc1ccccc1)NC(=O)[C@@H](NC(=O)CNC(=O)[C@H](CCC(N)=O)NC(=O)C(C)(C)NC(=O)[C@@H](N)Cc1c[nH]cn1)[C@@H](C)O)[C@@H](C)O)C(C)C)C(C)C)C(=O)N[C@@H](CC(C)C)C(=O)NC(C)(C)C(=O)N[C@@H](CCC(=O)O)C(N)=O
B6: Peptide 449 (peptide)
peptide: H[Aib]QGTFTSDVSK[αMeF]LDTK([AEEA-AEEA-γGlu-γGlu-C20 diacid])RARDFVQWLLE[Aib]G-OH
modifications: N-terminus assumed
SMILES: CC(C)C[C@H](NC(=O)[C@H](Cc1c[nH]c2ccccc12)NC(=O)[C@H](CCC(N)=O)NC(=O)[C@@H](NC(=O)[C@H](Cc1ccccc1)NC(=O)[C@H](CC(=O)O)NC(=O)[C@H](CCCNC(=N)N)NC(=O)[C@H](C)NC(=O)[C@H](CCCNC(=N)N)NC(=O)[C@H](CCCCNC(=O)COCCOCCNC(=O)COCCOCCNC(=O)CC[C@H](NC(=O)CC[C@H](NC(=O)CCCCCCCCCCCCCCCCCCC(=O)O)C(=O)O)C(=O)O)NC(=O)[C@@H](NC(=O)[C@H](CC(=O)O)NC(=O)[C@H](CC(C)C)NC(=O)[C@](C)(Cc1ccccc1)NC(=O)[C@H](CCCCN)NC(=O)[C@H](CO)NC(=O)[C@@H](NC(=O)[C@H](CC(=O)O)NC(=O)[C@H](CO)NC(=O)[C@@H](NC(=O)[C@H](Cc1ccccc1)NC(=O)[C@@H](NC(=O)CNC(=O)[C@H](CCC(N)=O)NC(=O)C(C)(C)NC(=O)[C@@H](N)Cc1c[nH]cn1)[C@@H](C)O)[C@@H](C)O)C(C)C)[C@@H](C)O)C(C)C)C(=O)N[C@@H](CC(C)C)C(=O)N[C@@H](CCC(=O)O)C(=O)NC(C)(C)C(=O)NCC(=O)O
B7: Peptide 450 (peptide)
peptide: H[Aib]QGTFTSDVSK[αMeF]LDKK([AEEA-AEEA-γGlu-γGlu-C18 diacid])RAQDFVRWLLE[Aib]G-OH
modifications: N-terminus assumed
SMILES: CC(C)C[C@H](NC(=O)[C@H](Cc1c[nH]c2ccccc12)NC(=O)[C@H](CCCNC(=N)N)NC(=O)[C@@H](NC(=O)[C@H](Cc1ccccc1)NC(=O)[C@H](CC(=O)O)NC(=O)[C@H](CCC(N)=O)NC(=O)[C@H](C)NC(=O)[C@H](CCCNC(=N)N)NC(=O)[C@H](CCCCNC(=O)COCCOCCNC(=O)COCCOCCNC(=O)CC[C@H](NC(=O)CC[C@H](NC(=O)CCCCCCCCCCCCCCCCC(=O)O)C(=O)O)C(=O)O)NC(=O)[C@H](CCCCN)NC(=O)[C@H](CC(=O)O)NC(=O)[C@H](CC(C)C)NC(=O)[C@](C)(Cc1ccccc1)NC(=O)[C@H](CCCCN)NC(=O)[C@H](CO)NC(=O)[C@@H](NC(=O)[C@H](CC(=O)O)NC(=O)[C@H](CO)NC(=O)[C@@H](NC(=O)[C@H](Cc1ccccc1)NC(=O)[C@@H](NC(=O)CNC(=O)[C@H](CCC(N)=O)NC(=O)C(C)(C)NC(=O)[C@@H](N)Cc1c[nH]cn1)[C@@H](C)O)[C@@H](C)O)C(C)C)C(C)C)C(=O)N[C@@H](CC(C)C)C(=O)N[C@@H](CCC(=O)O)C(=O)NC(C)(C)C(=O)NCC(=O)O

Experiments:
human GLP-1 receptor = human GLP-1 receptor (human, UniProt P43220); assay: cell-based or functional assay
human glucagon receptor = human glucagon receptor (human, UniProt P47871); assay: cell-based or functional assay

| cAMP production EC50 (human GLP-1 receptor) [pM] | cAMP production EC50 (human glucagon receptor) [pM] | Binder |
| --- | --- | --- |
| 53.1 | 29 | B1 |
| 170 | 162 | H[Aib]QGTFTSDVSK[αMeF]LDKK([AEEA-AEEA-γGlu-C20 diacid])RAQDFVRWLLE[Aib]G-NH2 [Peptide 453] |
| 127 | 114 | B2 |
| 495 | 151 | B3 |
| 173 | 274 | B4 |
| 895 | 503 | B5 |
| 207 | 242 | B6 |
| 57.3 | 57.8 | B7 |
